From the supplement of paper PMC10567573
± gives the standard deviation.

Experiment: protein stability index of a GFP-peptide fusion (GPS, HEK-293T) (PSI 1-6); higher = more stable
[1] = treatment: DMSO, c terminus: a fixed tail appended
[2] = treatment: MLN4924 1 uM, 8 h, c terminus: a fixed tail appended
[3] = treatment: DMSO, c terminus: native
[4] = treatment: MLN4924 1 uM, 8 h, c terminus: native
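Note: 24-mer peptide tiles fused after GFP, lentivirally expressed, FACS-sorted into six equal bins by GFP/DsRed ratio, decoded by Illumina sequencing, PSI is the read-weighted mean bin number.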

Row | Sequence | protein stability index [1] | protein stability index [2] | protein stability index [3] | protein stability index [4]
1 | HLAVDKNTTCVGRYPVCKFPSLQV [FEM1C] | 2.46 ± 0.25 | 2.44 ± 0.26 | – | –
2 | TGLSMIANGGAICAVTFFTILLSY [OR4A15] | 2.85 ± 0.28 | 3.16 ± 0.38 | – | –
3 | ERPERRSGPPASYCAKLCEPQWFY [C8orf76] | 2.46 ± 0.26 | 2.54 ± 0.32 | – | –
4 | FPRDAVQIEEVFISEEIQMSTKES [MIA2] | 4.56 ± 0.17 | 4.5 ± 0.2 | – | –
5 | EAAGVQIQMVNESLGYVRSQFLKL [CD207] | 2.334 ± 0.019 | 2.3 ± 0.44 | – | –
6 | IKSSLKDEYQYSFWDLFRSKDNMR [SLC2A12] | 2.39 ± 0.23 | 2.3 ± 0.21 | – | –
7 | PLLSPLLASRNPCPWHYLHLSGSH [RSPH3] | 2.15 ± 0.23 | 2.01 ± 0.2 | – | –
8 | MLPGRTDNAVKNHWNSTIKRKVDT [MYBL2] | 3.61 ± 0.17 | 4.09 ± 0.24 | – | –
9 | VEVLGPYEPLLSRVQAALVWERPA [RETREG3] | 2.37 ± 0.39 | 2.48 ± 0.24 | – | –
10 | DLPSSTPVANSGTKPKTTAIQGIS [DLC1] | 4.75 ± 0.2 | 4.93 ± 0.065 | – | –
11 | HLTVVAIFYGSGIFNYMRLGSTKL [OR3A1] | 3.1 ± 0.62 | 2.76 ± 0.37 | – | –
12 | QDGVSCLNIVERYDPKENKWTRVA [KLHL20] | 3.98 ± 0.28 | 4.08 ± 0.21 | – | –
13 | WIIKSNYQGLPVRCVKSIIRQVLQ [SRPK2] | 2.75 ± 0.48 | 2.78 ± 0.5 | – | –
14 | GKIVGSLCAIAGVLTIALPVPVIV [KCNA1] | 3.19 ± 0.34 | 3.22 ± 0.44 | – | –
15 | RIHSGEKPYECNECGKAFSQSSYL [ZNF232] | 2.85 ± 0.068 | 3.1 ± 0.35 | – | –
16 | DSTKTAFHRSQTLSYRNGYAIVRR [EFHC1] | 3.31 ± 0.12 | 3.48 ± 0.32 | – | –
17 | PNTLYEGGYFKAHIKFPIDYPYSP [UBE2R2] | 2.26 ± 0.13 | 2.21 ± 0.27 | – | –
18 | ISPGRVYEYTSCTTFSTTSGYMEG [FBXO3] | 2.78 ± 0.22 | 2.69 ± 0.36 | – | –
19 | CVDRQEVAEITKQLPPVVPVSKPG [TCAP] | 4.7 ± 0.2 | 4.63 ± 0.15 | – | –
20 | LYPFQIHSIALSTFASLIGPFGGF [CDS1] | 3.36 ± 0.62 | 3.09 ± 0.36 | – | –
21 | LKGVKQACCEFLESQLDPSNCLGI [KLHL12] | 2.66 ± 0.66 | 2.51 ± 0.29 | – | –
22 | QHLKYKEHPEALSCLLLQLRREKP [INTS3] | 2.68 ± 0.16 | 3 ± 0.32 | – | –

Row | Sequence | protein stability index [1] | protein stability index [2] | protein stability index [3] | protein stability index [4]
23 | DFEFLAFWQTQYNNMNAVNLFFAW [PKD2L1] | 3.17 ± 0.5 | 2.93 ± 0.55 | – | –
24 | SGATTTAPSLSGKGNPEEEDVDTS [CTNNB1] | 5.61 ± 0.31 | 5.62 ± 0.17 | – | –
25 | NCRLQSPYFSPSASFHHKLHHKRL [CBY2] | 2.32 ± 0.24 | 2.33 ± 0.16 | – | –
26 | DMKAMSPENQEYFEKHRWPPVWYL [RHOBTB2] | 2.47 ± 0.17 | 2.67 ± 0.36 | – | –
27 | GRPGIVAWTLINLSFAAKQRELHS [DHCR7] | 2.81 ± 0.31 | 3.02 ± 1 | – | –
28 | DSAKREVKQKISPYFKSNDVVCKN [FAN1] | 3.95 ± 0.35 | 4 ± 0.31 | – | –
29 | TVCGDLHGQLDDLIFIFYKNGLPS [PPEF2] | 2.87 ± 2.1 | 1.94 ± 0.41 | – | –
30 | LLLFLVFVIVLFFIYHFMQAEEGN [EMD] | 2.23 ± 0.15 | 2.42 ± 0.15 | – | –
31 | HHHGRSRPDRSSQGGSLPSEEKGH [CHGB] | 5.34 ± 0.06 | 5.31 ± 0.083 | – | –
32 | PFETREPPPAYEPPAPAPLPPPSA [SCAMP3] | 4.99 ± 0.22 | 5.08 ± 0.41 | – | –
33 | TALLGGPRRCHSAPPQGSCGDELP [PLEKHN1] | 4.1 ± 0.3 | 4.45 ± 0.47 | – | –
34 | LSEASGGRAENGERSDLEEDNERE [ZC3H15] | 5.53 ± 0.47 | 5.81 ± 0.062 | – | –
35 | ELRPRRGRCGPQAARAAGRDVAAE [POMT2] | 3.58 ± 0.37 | 3.67 ± 0.086 | – | –
36 | KCGSGARGGDGEVASAPLQPPVPS [TRADD] | 4.79 ± 0.24 | 4.78 ± 0.36 | – | –
37 | LPPTPLLLFPEEEATNGREGLLRF [AUP1] | 3.7 ± 0.33 | 3.73 ± 0.13 | – | –
38 | LVFLITAILVKVQLDALPFFVITM [SLC29A1] | 3.06 ± 0.24 | 2.88 ± 0.39 | – | –
39 | EGHHHDVVACDFSPDGALLATASY [WSB1] | 3.9 ± 0.23 | 4.03 ± 0.18 | – | –
40 | SKVIEILDSQTEIYQYVQNSMAPH [DLC1] | 2.6 ± 0.3 | 2.71 ± 0.28 | – | –
41 | FRKDSVLNILIQSLDWETFEQYCA [INTS3] | 2.51 ± 0.61 | 2.04 ± 0.18 | – | –
42 | KKLRLVFKSLDKKNDGRIDAQEIM [SLC25A25] | 2.57 ± 0.23 | 2.87 ± 0.31 | – | –
43 | TISSWRNDRMSTRHDGYATNDGNH [RBMY1A1] | 3.99 ± 0.23 | 4.02 ± 0.086 | – | –
44 | SDLNTNNLLFKPPVESHIQKNKKI [KMT2E] | 4.31 ± 0.16 | 4.45 ± 0.39 | – | –

Row | Sequence | protein stability index [1] | protein stability index [2] | protein stability index [3] | protein stability index [4]
45 | PAQRITLAEALLHPFFAGLTPEER [CLK3] | 3 ± 0.28 | 3.13 ± 0.27 | – | –
46 | GPEHATRLNGTAKGERRREPGGYD [DVL3] | 5.13 ± 0.26 | 5.18 ± 0.19 | – | –
47 | NEKEKALQAQVQYQQQHEQQKKDL [SASS6] | 5.66 ± 0.2 | 5.48 ± 0.5 | – | –
48 | FVATFLRYAVVLNATWLVNSAAHL [SCD] | 3.31 ± 0.7 | 2.97 ± 0.33 | – | –
49 | PIRCGEVLFAVGGWCSGDAISSVE [KLHL20] | 2.22 ± 0.42 | 2.34 ± 0.41 | – | –
50 | TWGKNKPGIGAVILKRFCWLLLQ [FAN1] | – | – | 3.45 ± 0.45 | 2.87 ± 0.53
51 | SSKTITAEIPDGPPVVAHYDMSDT [C18orf25] | 5.14 ± 0.14 | 4.96 ± 0.23 | – | –
52 | MTVKPAKAASLARNLAKRRRTYLG [RSPH3] | 3.16 ± 0.3 | 3.6 ± 0.3 | – | –
53 | MGERKGVNKYYPPDFNPEKHGSLN [YJU2B] | 4.11 ± 0.4 | 4.18 ± 0.12 | – | –
54 | LALKTPPRVLTLSERPLDFLDLER [MFF] | 2.96 ± 0.45 | 3.1 ± 0.21 | – | –
55 | SSAPDLMCLSPDRKMEVEELSPLA [CDC25B] | 5 ± 0.37 | 5 ± 0.22 | – | –
56 | SSGGSSGSSSDNRTYRYSNRYCGG [DYRK1B] | 4.04 ± 0.23 | 4.07 ± 0.12 | – | –
57 | GGLATGIAGGLAGMGGIQNEKETM [KRT18] | 4.95 ± 0.33 | 4.58 ± 0.39 | – | –
58 | YRSEDLLDVDTAAGGFQQRQGLKY [FBXO3] | 4.25 ± 0.18 | 4.18 ± 0.29 | – | –
59 | SAAHEVELQRQKEAEKLERQLALP [NOP53] | 4.99 ± 0.33 | 5.19 ± 0.23 | – | –
60 | LSSSSARFLSRSIPSLQSEYVHY [CDC14A] | – | – | 3.19 ± 0.27 | 3.06 ± 0.26
61 | WLRVLNPDLVKGPWTKEEDQKVIE [MYBL2] | 2.61 ± 0.36 | 2.92 ± 0.18 | – | –
62 | HHCDDHLSLYQLSLERGTALFAQV [RSAD1] | 2.22 ± 0.66 | 2.03 ± 0.2 | – | –
63 | QALRQMNEGAIDCVNYEGQSAYDV [DLC1] | 4.41 ± 0.22 | 4.39 ± 0.1 | – | –
64 | HPKDGPSPGGTLMDLSERQEVSSV [DLC1] | 5.15 ± 0.25 | 5.23 ± 0.21 | – | –
65 | DLRLRLDHLGWVARGTGSGEDSST [RTN2] | 3.53 ± 0.43 | 4.15 ± 0.37 | – | –
